# Target: BphP1-iB(GFP) (Rhodopseudomonas palustris | not stated)
# Experiment: light-induced relocalisation in live cells (epifluorescence microscopy); HeLa co-expressing BphP1-iB(GFP), mVenus-CAAX and mCherry-QPAS1; darkness against 740 nm light (1 mW cm^-2), 37 °C; mCherry signal moves from cytoplasm to plasma membrane
substance,measurement,value
mCherry-QPAS1,half-time of the relocalisation from cytoplasm to plasma membrane,33.6 s

# Reference: PMC6992714
